Test results: paper doi:10.1101/255976

Legend:
BRCA1;BARD1 = BRCA1;BARD1 (human;human, UniProt P38398;Q99728 1-1863;1-777, |); assay: EMSA
BRCA1 = BRCA1 (human, UniProt P38398 1-1863); assay: EMSA

B1: 50 bp DNA:RNA hybrid X12-3 DNA/X12-4C RNA (DNA:RNA)
DNA: GACGTCATAGACGATTACATTGCTAGGACATGCTGTCTAGAGACTATCGC
RNA: GCGAUAGUCUCUAGACAGCAUGUCCUAGCAAUGUAAUCGUCUAUGACGUC
B1: binds (BRCA1;BARD1); binds (BRCA1).
